Experimental data from publication PMC4851618, “Structural dynamics of a methionine γ-lyase for calicheamicin biosynthesis: Rotation of the conserved tyrosine stacking with pyridoxal phosphate” (Structural Dynamics, 2016).

Biological target: the molecule itself
Assay: crystal structure; sitting drop, 11 mg/ml protein with 1 mM PLP, 12% w/v PEG 20000, 0.1 M MES pH 6.5, 289 K; SAD, 2.10 Å, space group I222; quaternary assembly calculated by PISA

B1: CalE6, PLP-dependent methionine γ-lyase from Micromonospora echinospora (D7G variant, selenomethionine labeled) (enzyme, UniProt Q8KNG3 1-381, looked up)
chain: MSGMRFGTRLVHGGRRPSAGTGDVVPPIHVSTTYERRAQDEPRYFYGRGENPTREELEECLAGLERAPFATVFSSGQAAAATLLSLVRPGQCVVSTDDVYAGTDGLFDLAARQGVRVRYADLTTPEGIAAALAEPDLALVWIETPTNPLLTVVDVAEVSRRAHERGARVVVDNTFASPVLQQPLALGADVSLYSTTKSIAGHADVLGGALVYRDADLHAAVRAYRTTAGNVPGALDCFLVRRGLHTLSLRVHRQVATARVLVERLRASPVVGAVHYPGLPEHPQHAVVKAQMSAPGAIVSFDYLGGPAERLLDRFTLFTCGVSLGGVHSLVECPALMTHRPLSAEARARRGIGESLIRLSVGIEDPQDLAEDLSRALAGGT
modifications: selenomethionine in place of methionine; Lys 197 bound covalently to PLP (Schiff base, residue LLP 197)
notes: The printed fusion scheme (ENLYFQ/SNA-TARGET) leaves SNA before the protein after TEV cleavage; The forward primer begins the target with GTG (AGC GGT ATG CGC TTC GAC follow), so the first residue behind SNA may be Val, not Met; Crystallised with 1 mM PLP; also called CalE6-MES complex; CalE6 holoenzyme; source: E. coli BL21(DE3), selenomethionine labeled, purified (Ni-NTA, TEV cleavage, …)
  stoichiometry N: 4
